Assay results taken from paper doi:10.1101/2021.12.02.470928, “The PNUTS-PAD domain recruits MYC to the PNUTS:PP1 phosphatase complex via the oncogenic MYC-MB0 region” (bioRxiv, 2021).

Biological target: T1, PNUTS(1-148), PNUTS amino-terminal domain (PAD) (UniProt Q96QC0 1-148)
T1 construct: PNUTS (PP1 nuclear targeting subunit), residues 1-148, termed PAD; Vector pET28-MHL (RRID:Addgene_26096) with N-terminal His6 tag and TEV site; Used 13C,15N-labelled in some NMR experiments; also called apo PAD; source: E. coli BL21 (DE3), purified (Ni-NTA, gel filtration)
T1 sequence (looked up): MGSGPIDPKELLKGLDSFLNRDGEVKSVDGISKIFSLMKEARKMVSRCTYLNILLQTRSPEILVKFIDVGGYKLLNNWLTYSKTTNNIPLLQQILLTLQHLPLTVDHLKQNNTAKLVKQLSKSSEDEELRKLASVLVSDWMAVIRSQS
Assay: BLI; C-terminally biotinylated MYC constructs or N-terminally biotinylated peptides on SA biosensors, dipped into serial dilutions of PAD (WT or mutant); Octet RED384; room temperature; HBS-EP (10 mM HEPES pH 7.4, 150 mM NaCl, 3 mM EDTA, 0.005% P20) with 0.002 mg/ml BSA; Kd from steady-state response curves; apparent
Conditions: both partners purified

B1: biotinylated MYC(1-88) with C-terminal AVI tag (domain or fragment, UniProt P01106-2 16-103, looked up)
chain: MPLNVSFTNRNYDLDYDSVQPYFYCDEEENFYQQQQQSELQPPAPSEDIWKKFELLPTPPLSPSRRSGLCSPSYVAVTPFSLRGDNDG
modifications: biotin on the C-terminal AVI tag
notes: MYC, residues 1-88 (contains MB0 and MBI); Purified 'as described above'; also called wild-type MYC(1-88); recombinant biotinylated MYC N-terminal protein; source: E. coli BL21 (DE3)-BirA, biotinylated by co-expressed BirA, purified; not shown: AVI tag, C-terminal, kept
Kd: 3.5 µM
